# Assay results: PMC13639016
# Biological target: QatB (Escherichia coli NCTC9009)
# Assay: SEC-MALS
row,stoichiometry N,Substance
1,1,QatC (enzyme)
2,1,QatD (enzyme)
